For this assay, the target named is eel luteotropin/chorionic gonadotropin hormone receptor (eel LH/CGR) (eel).

For “tethered eel LH mutant (tethered rec-eel LH-M) with the eLH/CG β-subunit CTP linker between the β-subunit and the α-subunit (from UniProt P08751 135-169) (ligand)”, the EC50 of cAMP production (HTRF) in CHO-K1 cells transiently expressing eel LH/CGR; ligand 0-1500 ng/mL, 30 min, room temperature turned out to be 0.0478 µg/mL.

The substance “wild-type tethered eel luteinizing hormone (tethered rec-eel LH-wt) (ligand)” showed an EC50 of cAMP production (HTRF) in CHO-K1 cells transiently expressing eel LH/CGR; ligand 0-1500 ng/mL, 30 min, room temperature of 0.139 µg/mL.

The values above are taken from article PMC11202772.
